In the supplement of paper PMC11316812:
± gives the standard deviation of the averaged measurements.

What was measured:
MCF7 = assay: percentage of EdU-negative (G0-arrested) nuclei per well, 72 h; higher = more G0 arrest; conditions: reference: sequence is the full UniProt precursor, the tested protein was the secreted form or ectodomain
hTERT-HMEC = assay: as above; conditions: reference: sequence is the full UniProt precursor, the tested protein was the secreted form or ectodomain
[1] = protein concentration 0.0225 µM
[2] = protein concentration 0.00714286 µM
[3] = protein concentration 0.0714286 µM
[4] = protein concentration 0.01125 µM
[5] = protein concentration 0.1125 µM
[6] = protein concentration 0.03125 µM
[7] = protein concentration 0.3125 µM
[8] = protein concentration 0.00828571 µM
[9] = protein concentration 0.0828571 µM
[10] = protein concentration 0.02075 µM
[11] = protein concentration 0.2075 µM
[12] = protein concentration 0.0239275 µM
[13] = protein concentration 0.239275 µM
[14] = protein concentration 0.0245 µM
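Also: secreted proteins added to cultured cells, EdU pulse at the end, nuclei found by Hoechst imaging, EdU status from nuclear versus surrounding ring intensity ratio, PBS as neutral control.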

Sequence	percentage of EdU-negative (MCF7; [1])	percentage of EdU-negative (MCF7; protein concentration 0.225 µM)	percentage of EdU-negative (hTERT-HMEC; [1])	percentage of EdU-negative (hTERT-HMEC; protein concentration 0.225 µM)	other results
MGRRDAQLLAALLVLGLCALAGSEKPSPCQCSRLSPHNRTNCGFPGITSDQCFDNGCCFDSSVTGVPWCFHPLPKQESDQCVMEVSDRRNCGYPGISPEECASRKCCFSNFIFEVPWCFFPKSVEDCHY	23 ± 1.6%	24.8 ± 1.3%	5.31 ± 1.5%	5.92 ± 0.79%	
MGSGAGELGRAERLPVLFLFLLSLFCPALCEQIRYRIPEEMPKGSVVGNLATDLGFSVQELPTRKLRVSSEKPYFTVSAESGELLVSSRLDREEICGKKPACALEFEAVAENPLNFYHVNVEIEDINDHTPKFTQNSFELQISESAQPGTRFILEVAEDADIGLNSLQKYKLSLNPSFSLIIKEKQDGSKYPELALEKTLDREQQSYHRLVLTALDGGHPPLSGTTELRIQVTDANDNPPVFNRDVYRVSLRENVPPGTTVLQVSATDQDEGINSEITYSFYRTGQIFSLNSKSGEITTQKKLDFEETKEYSMVVEGRDGGGLVAQCTVEINIQDENDNSPEVTFHSLLEMILENAVPGTLIALIKIHDQDSGENGEVNCQLQGEVPFKIISSSKNSYKLVTDGTLDREQTPEYNVTITATDRGKPPLSSSISVILHIRDVNDNAPVFHQASYLVSVPENNPPGASIAQVCASDLDLGLNGQVSYSIMASDLEPLALASYVSMSAQSGVVFAQRAFDYEQLRTFELTLQARDQGSPALSANVSLRVLVGDRNDNAPRVLYPALGPDGSALFDMVPRAAEPGYLVTKVVAVDADSGHNAWLSYHVLQASEPGLFSLGLRTGEVRTARALGDRDAARQRLLVAVRDGGQPPLSATATLHLVFADSLQEVLPDITDRPVPSDPQAELQFYLVVALALISVLFLLAVILAVALRLRRSSSPAAWSCFQPGLCVKSGPVVPPNYSQGTLPYSYNLCVAHTGKTEFNFLKCSEQLSSGQDILCGDSSGALFPLCNSSESTSHPELQAPPNTDWRFSQAQRPGTSGSQNGDDTGTWPNNQFDTEMLQAMILASASEAADGSSTLGGGAGTMGLSARYGPQFTLQHVPDYRQNVYIPGSNATLTNAAGKRDGKAPAGGNGNKKKSGKKEKK [Q9Y5G0]					percentage of EdU-negative (MCF7; [2]): 26.7 ± 4%; percentage of EdU-negative (MCF7; [3]): 34.45 ± 0.24%; percentage of EdU-negative (hTERT-HMEC; [2]): 5.16 ± 0.12%; percentage of EdU-negative (hTERT-HMEC; [3]): 11.4 ± 4.3%
MGSGPRGALSLLLLLLAPPSRPAAGCPAPCSCAGTLVDCGRRGLTWASLPTAFPVDTTELVLTGNNLTALPPGLLDALPALRTAHLGANPWRCDCRLVPLRAWLAGRPERAPYRDLRCVAPPALRGRLLPYLAEDELRAACAPGPLCWGALAAQLALLGLGLLHALLLVLLLCRLRRLRARARARAAARLSLTDPLVAERAGTDES	23.5 ± 3%	27.189 ± 0.018%	5.41 ± 0.22%	6.21 ± 0.79%	
MGSGRRALSAVPAVLLVLTLPGLPVWAQNDTEPIVLEGKCLVVCDSNPATDSKGSSSSPLGISVRAANSKVAFSAVRSTNHEPSEMSNKTRIIYFDQILVNVGNFFTLESVFVAPRKGIYSFSFHVIKVYQSQTIQVNLMLNGKPVISAFAGDKDVTREAATNGVLLYLDKEDKVYLKLEKGNLVGGWQYSTFSGFLVFPL [Q9NTU7]	23.4 ± 2%	25.2 ± 2.2%	5.12 ± 0.27%	4.5 ± 0.36%	
MGSPRSALSCLLLHLLVLCLQAQEGPGRGPALGRELASLFRAGREPQGVSQQHVREQSLVTDQLSRRLIRTYQLYSRTSGKHVQVLANKRINAMAEDGDPFAKLIVETDTFGSRVRVRGAETGLYICMNKKGKLIAKSNGKGKDCVFTEIVLENNYTALQNAKYEGWYMAFTRKGRPRKGSKTRQHQREVHFMKRLPRGHHTTEQSLRFEFLNYPPFTRSLRGSQRTWAPEPR					percentage of EdU-negative (MCF7; [4]): 25.1 ± 1.4%; percentage of EdU-negative (MCF7; [5]): 25.58 ± 0.037%; percentage of EdU-negative (hTERT-HMEC; [4]): 5.64 ± 0.65%; percentage of EdU-negative (hTERT-HMEC; [5]): 11 ± 1.7%
MGSRGQGLLLAYCLLLAFASGLVLSRVPHVQGEQQEWEGTEELPSPPDHAERAEEQHEKYRPSQDQGLPASRCLRCCDPGTSMYPATAVPQINITILKGEKGDRGDRGLQGKYGKTGSAGARGHTGPKGQKGSMGAPGERCKSHYAAFSVGRKKPMHSNHYYQTVIFDTEFVNLYDHFNMFTGKFYCYVPGLYFFSLNVHTWNQKETYLHIMKNEEEVVILFAQVGDRSIMQSQSLMLELREQDQVWVRLYKGERENAIFSEELDTYITFSGYLVKHATEP [Q9BXJ1]	24.69 ± 0.17%	23.7 ± 2.1%	4.31 ± 0.1%	4.49 ± 0.49%	
MGSSSFLVLMVSLVLVTLVAVEGVKEGIEKAGVCPADNVRCFKSDPPQCHTDQDCLGERKCCYLHCGFKCVIPVKELEEGGNKDEDVSRPYPEPGWEAKCPGSSSTRCPQK [Q8WWY7]					percentage of EdU-negative (MCF7; [6]): 26.5 ± 3.1%; percentage of EdU-negative (MCF7; [7]): 24 ± 2.8%; percentage of EdU-negative (hTERT-HMEC; [6]): 5.3 ± 0.5%; percentage of EdU-negative (hTERT-HMEC; [7]): 5.28 ± 0.67%
MGTATRRKPHLLLVAAVALVSSSAWSSALGSQTTFGPVFEDQPLSVLFPEESTEEQVLLACRARASPPATYRWKMNGTEMKLEPGSRHQLVGGNLVIMNPTKAQDAGVYQCLASNPVGTVVSREAILRFGFLQEFSKEERDPVKAHEGWGVMLPCNPPAHYPGLSYRWLLNEFPNFIPTDGRHFVSQTTGNLYIARTNASDLGNYSCLATSHMDFSTKSVFSKFAQLNLAAEDTRLFAPSIKARFPAETYALVGQQVTLECFAFGNPVPRIKWRKVDGSLSPQWTTAEPTLQIPSVSFEDEGTYECEAENSKGRDTVQGRIIVQAQPEWLKVISDTEADIGSNLRWGCAAAGKPRPTVRWLRNGEPLASQNRVEVLAGDLRFSKLSLEDSGMYQCVAENKHGTIYASAELAVQALAPDFRLNPVRRLIPAARGGEILIPCQPRAAPKAVVLWSKGTEILVNSSRVTVTPDGTLIIRNISRSDEGKYTCFAENFMGKANSTGILSVRDATKITLAPSSADINLGDNLTLQCHASHDPTMDLTFTWTLDDFPIDFDKPGGHYRRTNVKETIGDLTILNAQLRHGGKYTCMAQTVVDSASKEATVLVRGPPGPPGGVVVRDIGDTTIQLSWSRGFDNHSPIAKYTLQARTPPAGKWKQVRTNPANIEGNAETAQVLGLTPWMDYEFRVIASNILGTGEPSGPSSKIRTREAAPSVAPSGLSGGGGAPGELIVNWTPMSREYQNGDGFGYLLSFRRQGSTHWQTARVPGADAQYFVYSNESVRPYTPFEVKIRSYNRRGDGPESLTALVYSAEEEPRVAPTKVWAKGVSSSEMNVTWEPVQQDMNGILLGYEIRYWKAGDKEAAADRVRTAGLDTSARVSGLHPNTKYHVTVRAYNRAGTGPASPSANATTMKPPPRRPPGNISWTFSSSSLSIKWDPVVPFRNESAVTGYKMLYQNDLHLTPTLHLTGKNWIEIPVPEDIGHALVQIRTTGPGGDGIPAEVHIVRNGGTSMMVENMAVRPAPHPGTVISHSVAMLILIGSLEL					percentage of EdU-negative (MCF7; [8]): 24.5 ± 3%; percentage of EdU-negative (MCF7; [9]): 25.1 ± 0.57%; percentage of EdU-negative (hTERT-HMEC; [8]): 5.61 ± 0.96%; percentage of EdU-negative (hTERT-HMEC; [9]): 5.98 ± 2%
MGTKAQVERKLLCLFILAILLCSLALGSVTVHSSEPEVRIPENNPVKLSCAYSGFSSPRVEWKFDQGDTTRLVCYNNKITASYEDRVTFLPTGITFKSVTREDTGTYTCMVSEEGGNSYGEVKVKLIVLVPPSKPTVNIPSSATIGNRAVLTCSEQDGSPPSEYTWFKDGIVMPTNPKSTRAFSNSSYVLNPTTGELVFDPLSASDTGEYSCEARNGYGTPMTSNAVRMEAVERNVGVIVAAVLVTLILLGILVFGIWFAYSRGHFDRTKKGTSSKKVIYSQPSARSEGEFKQTSSFLV [Q9Y624]	24.4 ± 0.49%	25.6 ± 5.5%	4.79 ± 0.22%	5.1 ± 1.2%	
MGTLPWLLAFFILGLQAWDTPTIVSRKEWGARPLACRALLTLPVAYIITDQLPGMQCQQQSVCSQMLRGLQSHSVYTIGWCDVAYNFLVGDDGRVYEGVGWNIQGLHTQGYNNISLGIAFFGNKIGSSPSPAALSAAEGLISYAIQKGHLSPRYIQPLLLKEETCLDPQHPVMPRKVCPNIIKRSAWEARETHCPKMNLPAKYVIIIHTAGTSCTVSTDCQTVVRNIQSFHMDTRNFCDIGYHFLVGQDGGVYEGVGWHIQGSHTYGFNDIALGIAFIGYFVEKPPNAAALEAAQDLIQCAVVEGYLTPNYLLMGHSDVVNILSPGQALYNIISTWPHFKH [Q96LB9]					percentage of EdU-negative (MCF7; [10]): 25.5 ± 4.8%; percentage of EdU-negative (MCF7; [11]): 26.6 ± 2.1%; percentage of EdU-negative (hTERT-HMEC; [10]): 5.52 ± 0.69%; percentage of EdU-negative (hTERT-HMEC; [11]): 5.51 ± 0.12%
MGTLSAPPCTQRIKWKGLLLTASLLNFWNLPTTAQVTIEAEPTKVSEGKDVLLLVHNLPQNLTGYIWYKGQMRDLYHYITSYVVDGEIIIYGPAYSGRETAYSNASLLIQNVTREDAGSYTLHIIKGDDGTRGVTGRFTFTLHLETPKPSISSSNLNPRETMEAVSLTCDPETPDASYLWWMNGQSLPMTHSLKLSETNRTLFLLGVTKYTAGPYECEIRNPVSASRSDPVTLNLLPKLPKPYITINNLNPRENKDVLNFTCEPKSENYTYIWWLNGQSLPVSPRVKRPIENRILILPSVTRNETGPYQCEIRDRYGGIRSDPVTLNVLYGPDLPRIYPSFTYYRSGEVLYLSCSADSNPPAQYSWTINEKFQLPGQKLFIRHITTKHSGLYVCSVRNSATGKESSKSMTVEVSDWTVP					percentage of EdU-negative (MCF7; [12]): 25 ± 2.2%; percentage of EdU-negative (MCF7; [13]): 25.7 ± 1.8%; percentage of EdU-negative (hTERT-HMEC; [12]): 5.16 ± 0.84%; percentage of EdU-negative (hTERT-HMEC; [13]): 7.5 ± 0.26%
MGTPRIQHLLILLVLGASLLTSGLELYCQKGLSMTVEADPANMFNWTTEEVETCDKGALCQETILIIKAGTETAILATKGCIPEGEEAITIVQHSSPPGLIVTSYSNYCEDSFCNDKDSLSQFWEFSETTASTVSTTLHCPTCVALGTCFSAPSLPCPNGTTRCYQGKLEITGGGIESSVEVKGCTAMIGCRLMSGILAVGPMFVREACPHQLLTQPRKTENGATCLPIPVWGLQLLLPLLLPSFIHFS [Q9BY14]					percentage of EdU-negative (MCF7; [14]): 25.5 ± 2%; percentage of EdU-negative (MCF7; protein concentration 0.245 µM): 26.5 ± 0.59%; percentage of EdU-negative (hTERT-HMEC; [14]): 5.14 ± 0.066%; percentage of EdU-negative (hTERT-HMEC; protein concentration 0.245 µM): 5.33 ± 0.8%
MGTSLLCWMALCLLGADHADTGVSQNPRHKITKRGQNVTFRCDPISEHNRLYWYRQTLGQGPEFLTYFQNEAQLEKSRLLSDRFSAERPKGSFSTLEIQRTEQGDSAMYLCASSL	27 ± 1.4%	26.8 ± 1.4%	5.02 ± 0.49%	6.26 ± 1.2%	
MGTSPSSSTALASCSRIARRATATMIAGSLLLLGFLSTTTAQPEQKASNLIGTYRHVDRATGQVLTCDKCPAGTYVSEHCTNTSLRVCSSCPVGTFTRHENGIEKCHDCSQPCPWPMIEKLPCAALTDRECTCPPGMFQSNATCAPHTVCPVGWGVRKKGTETEDVRCKQCARGTFSDVPSSVMKCKAYTDCLSQNLVVIKPGTKETDNVCGTLPSFSSSTSPSPGTAIFPRPEHMETHEVPSSTYVPKGMNSTESNSSASVRPKVLSSIQEGTVPDNTSSARGKEDVNKTLPNLQVVNHQQGPHHRHILKLLPSMEATGGEKSSTPIKGPKRGHPRQNLHKHFDINEHLPWMIVLFLLLVLVVIVVCSIRKSSRTLKKGPRQDPSAIVEKAGLKKSMTPTQNREKWIYYCNGHGIDILKLVAAQVGSQWKDIYQFLCNASEREVAAFSNGYTADHERAYAALQHWTIRGPEASLAQLISALRQHRRNDVVEKIRGLMEDTTQLETDKLALPMSPSPLSPSPIPSPNAKLENSALLTVEPSPQDKNKGFFVDESEPLLRCDSTSSGSSALSRNGSFITKEKKDTVLRQVRLDPCDLQPIFDDMLHFLNPEELRVIEEIPQAEDKLDRLFEIIGVKSQEASQTLLDSVYSHLPDLL	27.8 ± 0.67%	25.7 ± 4.1%	4.84 ± 0.51%	5.355 ± 0.035%	
